From US7708999B2, “Remedies for arthritis” (Kyowa Hakko Kirin Co., Ltd., priority 2001, dated 2010)

Tests used:
[1] = test system: rabbit articular chondrocytes; test: Degradation of extracellular matrix of rabbit chondrocytes with FGF-8; format: cell-based; conditions: 48 hours, FGF-8 1, 10 or 100 ng/mL tested
Description: Rabbit articular chondrocytes were isolated from both knees and shoulders of 3-week-old New Zealand white female rabbits and cultured according to the method of Tamura et al. (Tamura T. et al., Eur. J. Pharmacol., 419, 269-274, 2001). That is, the joints of both knees and the joints of both shoulders were isolated to collect the epiphyseal cartilages. […] The culture solution was removed, and the amount of glycosaminoglycan in extracellular matrix remaining on the plate was measured by the dimethymethylene blue (DMMB) method (Chandrasekhar S. et al., Anal. Biochem. 161 103-108, 1987). […] To 75 μL of this digested solution were added 25 μL of a guanidine hydrochloride buffer (2.88 mol/L guanidine hydrochloride, 50 mmol/L sodium acetate, pH 6.8) and 200 μL of a DMMB solution, and the absorbance was measured at 530/590 nm. The concentration of glycosaminoglycan of each sample was calculated from the absorbance of chondroitin sulfate (derived from whale cartilages, manufactured by Seikagaku Kogyo) used as a standard. Three experiments were performed for each condition and the mean values and the standard error were calculated.

[2] = test system: rabbit articular chondrocytes; test: Promotion of production of matrix metalloproteinase-3 from rabbit chondrocytes with FGF-8; format: cell-based; conditions: 48 hours
Description: Rabbit articular chondrocytes were isolated and cultured by the method described in Example 1. After the chondrocytes became confluent, the culture solution was replaced with 0.5 vol % FBS/DMEM, followed by the culturing for 24 hours. The culture solution was removed, and 1 mL of 0.5 vol % FBS/DMEM (non-stimulated group), 0.5 vol % FBS/DMEM comprising FGF-8 (100 ng/mL)(0 group) or 0.5 vol % FBS/DMEM comprising FGF-8 (100 ng/mL) and anti-FGF-8 neutralizing antibody KM1334 (1, 3 or 10 μg/mL) was added, followed by the culturing for 48 hours. After 48 hours, the culture medium was recovered, the matrix metalloproteinase-3 concentration in the culture medium was measured using rabbit matrix metalloproteinase-3 ELISA system (manufactured by Amersham Biosciences). Three experiments were performed for each condition, and the mean values and the standard error were calculated.

rabbit synovial cells = test: Promotion of growth of rabbit synovial cells with FGF-8 ([3H]thymidine incorporation); format: cell-based; conditions: FGF-8 1, 10 or 100 ng/mL tested
Description: (§1) Rabbit synovial cells were collected by the method of Hamilton et al. (Hamilton J. A. and Slywka J., J. Immunol. 126, 851-855, 1981). The isolated synovial cells were suspended in RPMI 1640 medium comprising 10 vol % FBS (FBS-comprising RPMI 1640 medium is hereinafter referred to as FBS/RPMI 1640), and 10,000 cells was inoculated at each well of a 96-well culture plate. After 24 hours of the culturing, the culture medium of each well was removed, and 200 μL of 0.2 vol % FBS/RPMI 1640 (non-stimulated group) or 0.2 vol % FBS/RPMI 1640 comprising FGF-8 (1, 10 or 100 ng/mL) was added. When the activity of the anti-FGF-8 neutralizing antibody was examined, 200 μL of 0.2 vol % FBS/RPMI 1640 comprising FGF-8 (100 ng/mL) (0 group) or 0.2 vol % FBS/RPMI 1640 comprising FGF-8 (100 ng/mL) and anti-FGF-8 neutralizing antibody KM1334 (0.1, 0.3, 1, 3 or 10 μg/ml) was added to each well. After 48 hours of the culturing, 9.25 kBq per well of [^3H]thymidine was added. The culturing was further performed for 24 hours, and the radioactivity of [^3H]thymidine incorporated in the cells was measured using a liquid scintillation counter (1205 Beta Plate, manufactured by Perkin Elmer Life Science Japan). Six experiments were performed for each condition, and the mean values and the standard error were calculated.

[3] = test system: human synovial cells derived from the rheumatoid arthritis patient; test: Promotion of growth of human synovial cells with FGF-8 ([3H]thymidine incorporation); format: cell-based; conditions: FGF-8 10, 100 or 500 ng/mL tested
Description: as §1, with “When the activity of the anti-FGF-8 neutralizing antibody was examined, 200 μL of 0.2 vol % FBS/RPMI 1640 comprising FGF-8 (100 ng/mL) (0 group) or 0.2 vol % FBS/RPMI 1640 comprising FGF-8 (100 ng/mL) and anti-FGF-8 neutralizing antibody KM1334 (0.1, 0.3, 1, 3 or 10 μg/ml) was added to each well. After 48 hours of the culturing, 9.25 kBq per well of [^3H]thymidine was added.” left out
The same experiment as in Example 3 was performed using human synovial cells derived from the rheumatoid arthritis patient (procured from Toyobo). […] Six experiments were performed for each condition, and the mean values and the standard error were calculated.

[4] = test system: knee joint of Sprague-Dawley rats; test: Induction of arthritis by intraarticular injection of FGF-8; format: in vivo, rat; conditions: 50 μL of 1 mg/mL FGF-8 into knee joint of rats, after 3 days
Description: Arthritis-like phenotypes were induced in Sprague-Dawley rats (male, 7 weeks old, Japan Charles River) using FGF-8 in the following manner. Fifty μL of FGF-8 solution prepared with saline(manufactured by Otsuka Seiyaku Kojo) to a final concentration of 1 mg/mL was injected into the each knee joint of rats. Further, a group that injected 50 μL of saline into the knee joint was also prepared. One group consisted of 3 rats. After 3 days from the injection of FGF-8 or saline, the inside of the knee articular capsule was washed with 30 μL of saline comprising 0.38 w/v % sodium citrate to collect the lavage fluid, according to the method of Yamada et al (Yamada A. et al., Inflamm. Res., 49, 144-146, 2000). This procedure was repeated ten times to recover 300 μL of the joint lavage fluid. The amount of glycosaminoglycan in the joint lavage fluid was measured by the DMMB method described in Example 1. The patella of the knee joint was isolated, and the cartilaginous portion was digested with papain by the method described in Example 1 to measure the […].

B1: FGF-8: fibroblast growth factor FGF-8, androgen-induced growth factor; manufactured by Peprotech (protein, UniProt P55075 23-233, looked up)
Fibroblast growth factor 8: QEGPGRGPALGRELASLFRAGREPQGVSQQHVREQSLVTDQLSRRLIRTYQLYSRTSGKHVQVLANKRINAMAEDGDPFAKLIVETDTFGSRVRVRGAETGLYICMNKKGKLIAKSNGKGKDCVFTEIVLENNYTALQNAKYEGWYMAFTRKGRPRKGSKTRQHQREVHFMKRLPRGHHTTEQSLRFEFLNYPPFTRSLRGSQRTWAPEPR
- concentration at which FGF-8 significantly decreased the residual amount of glycosaminoglycan in extracellular matrix [1]: 100 ng/mL
- concentration at which FGF-8 significantly increased the production of matrix metalloproteinase-3 from the chondrocytes [2]: 100 ng/mL
- concentration at which FGF-8 significantly promoted the incorporation of [3H]thymidine into the rabbit synovial cells (rabbit synovial cells): 100 ng/mL
- concentration at which FGF-8 significantly promoted the incorporation of [3H]thymidine into the human synovial cells [3]: 500 ng/mL
- concentration of glycosaminoglycan in the joint lavage fluid relative to the saline injected group [4]: 1.9 times
- weight of the patella after papain digestion relative to the saline injected group [4]: 40%
